According to IntAct's records for PubMed 31142615:

B1: E3 ubiquitin-protein ligase MARCHF2 (Homo sapiens), Q9P0N8 (parent)
chain: MTTGDCCHLPGSLCDCSGSPAFSKVVEATGLGPPQYVAQVTSRDGRLLSTVIRALDTPSDGPFCRICHEGANGECLLSPCGCTGTLGAVHKSCLEKWLSSSNTSYCELCHTEFAVEKRPRPLTEWLKDPGPRTEKRTLCCDMVCFLFITPLAAISGWLCLRGAQDHLRLHSQLEAVGLIALTIALFTIYVLWTLVSFRYHCQLYSEWRKTNQKVRLKIREADSPEGPQHSPLAAGLLKKVAEETPV

Variants of: B1
Conditions: with ergi3_human ERGIC3, Q9Y282
ergi3_human ERGIC3, Q9Y282, sequence (Q9Y282 whole entry): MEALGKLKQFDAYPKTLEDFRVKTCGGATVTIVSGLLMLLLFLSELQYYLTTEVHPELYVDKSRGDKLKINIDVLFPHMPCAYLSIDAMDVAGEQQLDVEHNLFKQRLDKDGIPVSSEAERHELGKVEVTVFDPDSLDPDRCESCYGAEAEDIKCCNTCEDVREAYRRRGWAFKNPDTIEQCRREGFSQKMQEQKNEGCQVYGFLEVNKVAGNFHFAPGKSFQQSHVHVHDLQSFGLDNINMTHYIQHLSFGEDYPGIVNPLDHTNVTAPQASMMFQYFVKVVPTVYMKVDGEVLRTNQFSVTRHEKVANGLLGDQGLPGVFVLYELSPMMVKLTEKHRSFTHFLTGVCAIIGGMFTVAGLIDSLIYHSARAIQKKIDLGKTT

effect of a mutation on the interaction	Variant
decreasing interaction strength	MTTGDCCHLPGSLCDCSGSPAFSKVVEATGLGPPQYVAQVTSRDGRLLSTVIRALDTPSDGPFSRISHEGANGECLLSPCGCTGTLGAVHKSCLEKWLSSSNTSYCELCHTEFAVEKRPRPLTEWLKDPGPRTEKRTLCCDMVCFLFITPLAAISGWLCLRGAQDHLRLHSQLEAVGLIALTIALFTIYVLWTLVSFRYHCQLYSEWRKTNQKVRLKIREADSPEGPQHSPLAAGLLKKVAEETPV [C64S;C67S]

Variants of: B1
Conditions: with ergi3_human ERGIC3, Q9Y282
Remark: another data set of the same source

effect of a mutation on the interaction	Variant
with no effect	MTTGDCCHLPGSLCDCSGSPAFSKVVEATGLGPPQYVAQVTSRDGRLLSTVIRALDTPSDGPFSRISHEGANGECLLSPCGCTGTLGAVHKSCLEKWLSSSNTSYCELCHTEFAVEKRPRPLTEWLKDPGPRTEKRTLCCDMVCFLFITPLAAISGWLCLRGAQDHLRLHSQLEAVGLIALTIALFTIYVLWTLVSFRYHCQLYSEWRKTNQKVRLKIREADSPEGPQHSPLAAGLLKKVAEETPV [C64S;C67S]

Variants of: B1
Conditions: with ergi3_human ERGIC3, Q9Y282
Remark: another data set of the same source

effect of a mutation on the interaction	Variant
causing an interaction	MTTGDCCHLPGSLCDCSGSPAFSKVVEATGLGPPQYVAQVTSRDGRLLSTVIRALDTPSDGPFSRISHEGANGECLLSPCGCTGTLGAVHKSCLEKWLSSSNTSYCELCHTEFAVEKRPRPLTEWLKDPGPRTEKRTLCCDMVCFLFITPLAAISGWLCLRGAQDHLRLHSQLEAVGLIALTIALFTIYVLWTLVSFRYHCQLYSEWRKTNQKVRLKIREADSPEGPQHSPLAAGLLKKVAEETPV [C64S;C67S]
